# Earlier results in article PMC8711257.
# Columns and labels:
# MET (Homo sapiens) = MET (Homo sapiens) (UniProt P08581)
# MET ECD (Homo sapiens) = MET ECD (Homo sapiens) (UniProt P08581)
substance,measurement,setting,value
HGF NK1 NK1 (from UniProt P14210),Kd,MET (Homo sapiens),3 nM
same,Kd,MET ECD (Homo sapiens),150 nM
